Measurements taken from paper doi:10.1101/2025.11.20.689565, “Phosphorylation remodels the mitotic centrosome matrix to generate bipartite γ-tubulin complex docking sites” (bioRxiv, 2025).
Values belong to the binder of their own block, whether it stands above or below them.

Key:
[1] = target: the molecule itself; test: SEC-MALS; Superose 6 increase 10/300 or Superdex 200 increase 10/300 in 20 mM Tris-HCl pH 7.5, 50 mM NaCl, 5 mM EGTA, 2 mM MgCl2, 1 mM DTT; 120 μL of ~2.0 mg/ml protein loaded; with or without PLK1 phosphorylation
[2] = target: T1, untagged SPD-5 aa 101-473, not phosphorylated (C. elegans, UniProt P91349 101-473); test: pull-down; MBP pull-down: purified SPD-5 fragments mixed at 2.0 μM with or without 500 nM PLK1(T194D) in kinase buffer 1 h at 23°C; then 75 nM each with 2 μg anti-MBP antibody in lysis buffer 2 h at 4°C and protein A beads 1 h at 4°C; five washes; immunoblot or Coomassie; details: both partners purified
T1 construct: source: E. coli BL21(DE3) pLysS, purified (glutathione agarose, cleaved off GST)
T1 sequence (looked up): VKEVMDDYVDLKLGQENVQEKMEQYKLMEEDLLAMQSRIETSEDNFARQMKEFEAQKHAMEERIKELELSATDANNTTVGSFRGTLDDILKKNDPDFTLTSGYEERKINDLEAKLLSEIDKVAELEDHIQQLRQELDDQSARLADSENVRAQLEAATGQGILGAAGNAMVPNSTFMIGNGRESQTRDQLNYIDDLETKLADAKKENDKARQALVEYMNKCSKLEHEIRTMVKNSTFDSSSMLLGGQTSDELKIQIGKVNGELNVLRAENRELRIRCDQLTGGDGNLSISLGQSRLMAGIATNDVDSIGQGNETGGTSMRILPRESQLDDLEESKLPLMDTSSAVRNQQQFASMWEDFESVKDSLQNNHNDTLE

B1: untagged SPD-5 aa 1-473, not phosphorylated (domain or fragment, C. elegans, UniProt P91349 1-473, looked up)
chain: MEDNSVLNEDSNLEHVEGQPRRSMSQPVLNVEGDKRTSSTSATQQQVLSGAFSSADVRSIPIIQTWEENKALKTKITILRGELQMYQRRYSEAKEASQKRVKEVMDDYVDLKLGQENVQEKMEQYKLMEEDLLAMQSRIETSEDNFARQMKEFEAQKHAMEERIKELELSATDANNTTVGSFRGTLDDILKKNDPDFTLTSGYEERKINDLEAKLLSEIDKVAELEDHIQQLRQELDDQSARLADSENVRAQLEAATGQGILGAAGNAMVPNSTFMIGNGRESQTRDQLNYIDDLETKLADAKKENDKARQALVEYMNKCSKLEHEIRTMVKNSTFDSSSMLLGGQTSDELKIQIGKVNGELNVLRAENRELRIRCDQLTGGDGNLSISLGQSRLMAGIATNDVDSIGQGNETGGTSMRILPRESQLDDLEESKLPLMDTSSAVRNQQQFASMWEDFESVKDSLQNNHNDTLE
notes: also called SPD-5 N-terminus; source: E. coli BL21(DE3) pLysS, purified (glutathione agarose, cleaved off GST)
stoichiometry N [1]: 2

B2: untagged SPD-5 aa 1-473, PLK1-phosphorylated (domain or fragment, C. elegans, UniProt P91349 1-473, looked up)
chain: B1 chain
modifications: phosphorylated in vitro by PLK1(T194D); sites not all mapped (predicted PLK1 sites S5, S11, S170, T178, T198, T274, T335, S339, S340)
notes: source: E. coli BL21(DE3) pLysS, purified (glutathione agarose, cleaved off GST); incubated with PLK1-6His and ATP
stoichiometry N [1]: 2

B3: MBP-6His-HA (M6HH)-tagged SPD-5 aa 1-473, not phosphorylated (domain or fragment, C. elegans, UniProt P91349 1-473, looked up)
chain: B1 chain
notes: source: E. coli BL21(DE3) pLysS, purified (Ni-NTA)
stoichiometry N [1]: 2

B4: MBP-6His-HA (M6HH)-tagged SPD-5 aa 1-345, not phosphorylated (domain or fragment, C. elegans, UniProt P91349 1-345, looked up)
chain: MEDNSVLNEDSNLEHVEGQPRRSMSQPVLNVEGDKRTSSTSATQQQVLSGAFSSADVRSIPIIQTWEENKALKTKITILRGELQMYQRRYSEAKEASQKRVKEVMDDYVDLKLGQENVQEKMEQYKLMEEDLLAMQSRIETSEDNFARQMKEFEAQKHAMEERIKELELSATDANNTTVGSFRGTLDDILKKNDPDFTLTSGYEERKINDLEAKLLSEIDKVAELEDHIQQLRQELDDQSARLADSENVRAQLEAATGQGILGAAGNAMVPNSTFMIGNGRESQTRDQLNYIDDLETKLADAKKENDKARQALVEYMNKCSKLEHEIRTMVKNSTFDSSSMLLGG
notes: as for B3
stoichiometry N [1]: 2

binding result [2]: binds
B5: MBP-6His-HA (M6HH)-tagged SPD-5 aa 1-101, not phosphorylated (domain or fragment, C. elegans, UniProt P91349 1-101, looked up)
chain: MEDNSVLNEDSNLEHVEGQPRRSMSQPVLNVEGDKRTSSTSATQQQVLSGAFSSADVRSIPIIQTWEENKALKTKITILRGELQMYQRRYSEAKEASQKRV
notes: also called PRGB1; source: E. coli BL21(DE3) pLysS, purified (Ni-NTA)
